Assay results reported in patent US20150307599A1 (GARVAN INSTITUTE OF MEDICAL RESEARCH, published 2015).
Where no end group is shown, it is not given here.

Legend:
[1] = molecular target: T1, Peptide 2p15 (Poly Ala with shrinking NPY C term); assay: indirect ELISA, peptide coated at 20 ug/mL, MAb at 1 ug/mL
T1 construct: 15 alanines followed by RY-amide
T1 peptide: AAAAAAAAAAAAAAARY-NH2
Method: (§1) ELISA was used to map the reactivity of purified MAb 5E12-B7 against the peptides described in Table 3. Briefly, ELISA microwell plates (96-well Maxisorp, Nunc) were coated overnight at 4° C. with 50 μL of mapping peptides (Table 3) diluted to 20 μg/mL in carbonate coating buffer (CCB). Between each of the following steps, microwell plates were washed three times with PBST using a plate washer (BioTek). Coated wells were blocked with 200 μL PBS containing 5% w/v skim milk (Diploma). Blocked wells were incubated for 1 hr with 50 μL of MAb 5E12-B7 diluted to 1 μg/mL in skim milk/PBST. Wells were then incubated for 1 hr with 50 μL Peroxidase-conjugated AffiniPure F(ab)2 fragment goat anti-mouse secondary antibody (Jackson) diluted 1:5000 in skim milk/PBST. Ig binding was detected by incubation of wells with 50 μL TMB substrate (Becton Dickinson). Substrate reaction was stopped after 15 min with 50 μL 1M H₂SO₄ and O.D. 450 nm was measured.

[2] = molecular target: T2, Peptide 2p16 (Poly Ala with shrinking NPY C term); assay: as above
T2 construct: 16 alanines followed by Y-amide
T2 peptide: AAAAAAAAAAAAAAAAY-NH2
Method: as §1

[3] = molecular target: T3, Peptide 2p17 (HBY with polyAlanine C terminus) (C-terminal amide (-NH2)); assay: as above
T3 construct: HBY with four alanine residues added to the C-terminus
T3 peptide: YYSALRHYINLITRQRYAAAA
Method: as §1

[4] = molecular target: T4, Peptide 1p17 (NPY last 17 residues Alanine Scan) (C-terminal amide (-NH2)); assay: as above
T4 construct: NPY 25-mer with alanine at NPY residue 35
Method: as §1

[5] = molecular target: T5, Peptide 1p16 (NPY last 17 residues Alanine Scan) (C-terminal amide (-NH2)); assay: as above
T5 construct: NPY 25-mer with alanine at NPY residue 34
Method: as §1

[6] = molecular target: T6, Peptide 1p18 (NPY last 17 residues Alanine Scan) (C-terminal amide (-NH2)); assay: as above
T6 construct: NPY 25-mer with alanine at NPY residue 36
Method: as §1

[7] = molecular target: T7, Peptide 3p7 (Brain Neuropeptide I); assay: SPR (Biacore), FIG. 12
T7 peptide: AGEGLSSPFWSLAAPQRF-NH2
Method: (§2) Epitope mapping and determination of the affinity of MAb 5E12-B7 was also performed using a Biacore 2000 unit (GE Healthcare). Briefly, purified MAb 5E12-B7 was biotinylated as described above, except that the biotinylation reaction was performed at a 20:1 molar ratio of biotin:Ig. An SA-Chip (GE Healthcare) was docked into the Biacore 2000 unit and HBS-EP buffer (GE) was allowed to run over all 4 flow channels at 40 μL/min until signal had stabilized. The flow path was then switched to channel 4 only and HBS-EP containing 60 μg/mL biotinylated antibody was injected at 40 μL/min for 5 min to couple MAb 5E12-B7 to the chip via biotin-streptavidin binding. HBS-EP buffer was then run over channel 4 at 40 μL/min for over 30 min to remove all uncoupled Ig from the Biacore system then the flow path was changed to pass through all 4 flow channels. Association and dissociation of the peptides in Table 3 was measured using the Biacore Application Wizard. In each case, a baseline was established by passing HBS-EP over all 4 channels at 40 μL/min for 1 min before association was measure by injection of peptide (diluted to 1, 10, 100 or 1000 nM in HBS-EP) at 40 μL/min for 5 min. Dissociation was measured by allowing HBS-EP to pass over all 4 channels at 40 μL/min for 30 min. The kd, kₐ and KD were determined for each peptide by curve fitting using the BIAevalutation software.

[8] = molecular target: T8, Peptide 3p8 (Poly alanine with last 4 residues NPFF); assay: SPR (Biacore), FIG. 12
T8 peptide: AAAAAAAAAAAAAPQRF-NH2
Method: as §2

Peptide 3p6 (ala-NPFF) = molecular target: T9, Peptide 3p6 (ala-NPFF); assay: SPR (Biacore), FIG. 12
T9 construct: Last 8 residues of NPFF on a poly-alanine helix
T9 peptide: AAAAAAAAAFLFQPQRF-NH2
Method: as §2

[9] = molecular target: T10, Peptide 3p17 (NPY C terminus with similar a.a. substitutions); assay: SPR (Biacore), FIGS. 11A and 11B
T10 construct: Poly-alanine 17-mer ending QRH-amide
T10 peptide: AAAAAAAAAAAAAAQRH-NH2
Method: as §2

[10] = molecular target: T11, Peptide 3p18 (NPY C terminus with similar a.a. substitutions); assay: SPR (Biacore), FIGS. 11A and 11B
T11 construct: Poly-alanine 17-mer ending QRF-amide
T11 peptide: AAAAAAAAAAAAAAQRF-NH2
Method: as §2

[11] = molecular target: T12, Peptide 3p19 (NPY C terminus with similar a.a. substitutions); assay: SPR (Biacore), FIGS. 11A and 11B
T12 construct: Poly-alanine 17-mer ending QRW-amide
T12 peptide: AAAAAAAAAAAAAAQRW-NH2
Method: as §2

Measured: binding result

B1: MAb 5E12-B7 (antibody, V domains shown)
VH: QVQLQHPGTEVVKPGASVKLSCKASGYTFTNYWMHWVKQRPGQGLEWIGNIDPSNGGTNYNEKFKSKATLTVDKSSSTAYMQLSSLTSEDSAVYYCASFAYWGQGTLVTVSA
VL: DIQMTQSPASLSASVGETVTITCRASGNIHNYLAWYQQKQGKSPQLLVYNAKTLADGVPSRFSGSGSGTQYSLKISSLRPEDFGSYYCQHFWSPPFTFGSGTKLEIK
notes: Biotinylated for the Biacore and Octet assays; also called PYY/NPY antibody (5E12); anti-NPY/PYY antibody 5E12
no binding: [1] | [2] | [3] | [4] | [5] | [6] | [7] | [8] | Peptide 3p6 (ala-NPFF) | [9] | [10] | [11]
